Results reported in US6429191B1, “Treatment of hearing impairments” (Genentech, Inc., priority 1996, dated 2002).

Columns and labels:
[1] = test system: spiral ganglion neurons (SGNs); experiment: Survival of dissociated spiral ganglion neurons in serum-free culture; assay type: cell-based, rat; conditions: for survival-promoting effect on SGNs: P5 rat SGNs, neurotrophins 0.1-50 ng/ml
Protocol: FIG. 1 is a histogram depicting the effects of NT-4/5 on SGN survival. SGNs were prepared from P5 rats, plated and kept for 2 days in serum-free medium in the absence or presence of NT-4/5 at different concentrations. Viable SGNs were identified by labeling with a neurofilament monoclonal antibody (N52), viewed under a Zeiss Axiophot microscope, and counted using a grid ocular reticule covering an area of […]. For each culture, about 10 randomly selected fields were counted. Data were collected from 3 to 5 cultures and normalized as a percentage of the number of viable neurons in the control cultures in each of the experiments. The error bars represent SEM.
FIG. 2 is a histogram depicting the effects of different neurotrophins on SGN survival. SGNs were prepared from P5 rats and maintained for 2 days in serum-free medium without or with different neurotrophins at different concentrations. Quantitation of viable SGNs was made in the same way as in FIG. 1 and the error bars are SEM. […] Difference between NT-3 and NT-4/5 or BDNF was very significant at all doses (P<0.001). No statistical difference was found between NT-4/5 and BDNF except the dose of 0.1 ng/ml (P<0.01).
Identical results (not shown) were also obtained with a different neuronal marker, a monoclonal antibody 3A10 (Furley et al., 1990). SGNs were dissociated from postnatal day 5 (P5) rat cochleae and plated in defined serum-free medium. […] The enzyme was inactivated with a mixture of 0.005% soybean trypsin inhibitor (Sigma) and 0.005% DNase (Worthington) before trituration with 0.05% DNase in Eagle's Basal Medium (“BME”). The dissociated cells were preplated on a 35 mm untreated tissue culture dish for 25 min to enrich the neuronal population. Under these experimental procedures, about 10% of the cell population were spiral ganglion neurons (“SGNs”) as determined by immunocytochemistry with a monoclonal antibody (N52; Boehringer) against neurofilaments (200 kd; Boehringer). […] Cells were plated at a density of 80,000/well. In control cultures about 75% of SGNs died after 2 days, presumably due to a lack of growth factors.

[2] = test system: spiral ganglion neurons (SGNs); experiment: Neurotrophin protection of dissociated SGNs against cisplatin neurotoxicity; assay type: cell-based, rat; conditions: 10 ng/ml neurotrophin
Source text: Quantitation of viable SGNs was done in the same way as in FIG. 1. The error bars stand for SEM. […] While no difference was found between cultures containing NT-4/5 and cultures containing BDNF, the difference between cultures containing NT-3 and cultures containing NT-4/5 or BDNF was statistically very significant (P<0.001).

[3] = test system: SGNs in cochlear explants; experiment: Protective effects in cochlear explant cultures co-treated with ototoxins, SGN peripheral axon count; assay type: cell-based, rat; conditions: for protective effects on SGNs against ototoxins: growth factor added together with ototoxin, data not shown
Protocol: (§1) FIGS. 9A and 9B depict quantitation of protective effects of NT-4/5 on SGNs (FIG. 9A) and hair cells (FIG. 9B). […] The same experimental procedures were performed as in FIGS. 6A and 6B. The error bars are SEM and ** indicate that as compared to the cultures containing an ototoxin alone, p<0.001. “Con” indicates control culture.
FIG. 10 depicts quantitation of neuroprotection of different neurotrophins against sodium salicylate (Sal) and gentamicin (Gent). […] Sodium salicylate (5 mM) or gentamicin (3 mM) was added either alone or in combination with one of the neurotrophins (20 ng/ml) to 2-day cultures and the cultures were kept for 2 more days. The same experimental procedures were performed as in FIGS. 6A and 6B. […] The error bars are SEM and ** indicate that as compared to the cultures containing an ototoxin alone, p<0.001.
(§2) The protective effect of neurotrophins against ototoxicity was determined in the organotypic cultures of postnatal cochlear explants described in the Examples above. […] A human recombinant neurotrophin (Genentech, Inc.) or other growth factors, alone or in combination, was added to the culture at the same time the ototoxin was added.
(§3) Two days after treatment with ototoxins or co-treatment with ototoxins and neurotrophins (or other growth factors), the cochlear explant cultures were fixed in 4% paraformaldehyde in 0.1 M phosphate buffer (pH 7.4) for 30 min, washed in PBS, and subjected to double histochemical staining of the cochlear explant cultures. After incubation with the monoclonal antibody N52 against neurofilament protein (200 kd) in 1% Triton X100 containing 3% normal goat serum (“NGS”) for 2 days at 4° C., the explants were incubated with a Texas red-conjugated goat anti-mouse secondary antibody (1:70; Cappel) at room temperature for 40 min. The preparations were then stained with FITC-conjugated phalloidin (0.5 μg/ml; Sigma) for 45 min, washed in PBS and mounted in Fluoromount-G (Southern Biotechnology Associates, Birmingham, Ala.) which contains an anti-fading agent.

[4] = test system: hair cells in cochlear explants; experiment: Protective effects in cochlear explant cultures co-treated with ototoxins, hair cell count; assay type: cell-based, rat; conditions: for protective effects on hair cells against ototoxins: growth factor added together with ototoxin, data not shown
Protocol: as §1, §2, §3

trkC receptor = trkC receptor (Homo sapiens, UniProt Q16288); conditions: compared with NT-3; cited from earlier work
Sequence of trkC receptor (Q16288 32-839): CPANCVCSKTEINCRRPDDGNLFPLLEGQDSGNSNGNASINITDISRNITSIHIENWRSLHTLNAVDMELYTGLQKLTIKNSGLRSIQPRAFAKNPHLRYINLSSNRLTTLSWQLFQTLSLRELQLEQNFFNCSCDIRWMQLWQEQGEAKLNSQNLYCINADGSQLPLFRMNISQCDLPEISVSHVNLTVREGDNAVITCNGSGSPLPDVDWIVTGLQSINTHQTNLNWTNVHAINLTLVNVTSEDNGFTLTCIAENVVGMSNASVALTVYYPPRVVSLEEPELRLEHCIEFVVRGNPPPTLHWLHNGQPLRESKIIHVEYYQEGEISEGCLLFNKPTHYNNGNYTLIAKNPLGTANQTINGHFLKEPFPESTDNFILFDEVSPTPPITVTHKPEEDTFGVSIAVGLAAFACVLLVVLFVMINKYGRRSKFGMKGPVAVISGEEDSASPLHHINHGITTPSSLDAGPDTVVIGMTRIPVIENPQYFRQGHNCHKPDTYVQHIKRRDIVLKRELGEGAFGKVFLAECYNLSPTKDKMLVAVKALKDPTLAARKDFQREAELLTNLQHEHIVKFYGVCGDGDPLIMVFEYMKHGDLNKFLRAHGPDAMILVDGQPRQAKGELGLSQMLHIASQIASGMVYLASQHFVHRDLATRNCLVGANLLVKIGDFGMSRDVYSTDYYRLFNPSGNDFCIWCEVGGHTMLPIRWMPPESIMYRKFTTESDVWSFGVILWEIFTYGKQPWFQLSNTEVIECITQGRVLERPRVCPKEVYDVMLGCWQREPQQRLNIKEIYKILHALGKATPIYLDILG

Row | Molecule | survival-promoting effect on SGNs ([1]; 2 days, serum-free medium) | protective effects on SGNs against ototoxins [3] | protective effects on hair cells against ototoxins [4] | further results
1 | neurotrophin-4/5 (protein, UniProt P34130 81-210, looked up, Neurotrophin-4) Neurotrophin-4: GVSETAPASRRGELAVCDAVSGWVTDRRTAVDLRGREVEVLGEVPAAGGSPLRQYFFETRCKADNAEEGGPGAGGGGCRGVDRRHWVSECKAKQSYVRALTADAQGRVGWRWIRIDTACVCTLLSRTGRA | greatly enhanced the number of surviving SGNs in a dose-dependent manner | – | – | potency on SGN survival compared with other neurotrophins ([1]; 0.1 ng/ml): more potent than BDNF; maximal effect, increase in number of surviving SGNs ([1]; 10 ng/ml, 2 days, serum-free medium, vs control cultures): approximately 3 fold; synergistic/additive effects on SGN survival when added together with BDNF or NT-3 ([1]; saturated concentrations): no additive effects; percentage of surviving SGNs compared with control cultures lacking cisplatin ([2]; 1 μg/ml or 2 μg/ml cisplatin, 2 days): higher than that in the control cultures lacking cisplatin; protection of SGNs compared with cultures containing cisplatin alone ([2]; 4 μg/ml cisplatin): significantly protected SGNs from cell death; survival level, % of control cultures in the absence of cisplatin ([2]; 4 μg/ml cisplatin, 2 days): 70%; neuroprotection of SGNs against sodium salicylate and gentamicin ([3]; 20 ng/ml neurotrophin, sodium salicylate 5 mM or gentamicin 3 mM): significant neuroprotection; number of SGNs in control cultures ([3]; 20 ng/ml, no ototoxin): did not enhance; protection of SGNs from the three ototoxins ([3]; 20 ng/ml, sodium salicylate 5 mM, gentamicin 3 mM or cisplatin 4 μg/ml, 2 days co-treatment): significantly protected SGNs from the three ototoxins; number of hair cells in control cultures ([4]; 20 ng/ml, no ototoxin): did not enhance
2 | TGF-β2: transforming growth factor (protein, UniProt P61812 303-414, looked up) Transforming growth factor …: ALDAAYCFRNVQDNCCLRPLYIDFKRDLGWKWIHEPKGYNANFCAGACPYLWSSDTQHSRVLSLYNTINPEASASPCCVSQDLEPLTILYYIGKTPKIEQLSNMIVKSCKCS | No survival-promoting effects | did not show detectable protective effects | did not show detectable protective effects | –
3 | FGF-5: growth factor (R & D Systems) (protein, UniProt P12034 21-268, looked up) Fibroblast growth factor 5: HGEKRLAPKGQPGPAATDRNPRGSSSRQSSSSAMSSSSASSSPAASLGSQGSGLEQSSFQWSPSGRRTGSLYCRVGIGFHLQIYPDGKVNGSHEANMLSVLEIFAVSQGIVGIRGVFSNKFLAMSKKGKLHASAKFTDDCKFRERFQENSYNTYASAIHRTEKTGREWYVALNKRGKAKRGCSPRVKPQHISTHFLPRFKQSEQPELSFTVTVPEKKKPPSPIKPKIPLSAPRKNTNSVKYRLKFRFG | – | did not show detectable protective effects | did not show detectable protective effects | –
4 | FGF-7: growth factor (R&D Systems) (protein, UniProt P21781 32-194, looked up) Fibroblast growth factor 7: CNDMTPEQMATNVNCSSPERHTRSYDYMEGGDIRVRRLFCRTQWYLRIDKRGKVKGTQEMKNNYNIMEIRTVAVGIVAIKGVESEFYLAMNKEGKLYAKKECNEDCNFKELILENHYNTYASAKWTHNGGEMFVALNQKGIPVRGKKTKKEQKTAHFLPMAIT | – | did not show detectable protective effects | did not show detectable protective effects | –
5 | E92A NT-3: NT-3 with mutation at position E92 to alanine (protein, UniProt P20783 139-257, looked up, variant E92A, Neurotrophin-3, NT-3 with mutation at position E92 to alanine) Neurotrophin-3: YAEHKSHRGEYSVCDSESLWVTDKSSAIDIRGHQVTVLGEIKTGNSPVKQYFYETRCKEARPVKNGCRGIDDKHWNSQCKTSQTYVRALTSANNKLVGWRWIRIDTSCVCALSRKIGRT | – | – | – | trkC binding of NT-3 mutant (trkC receptor): increased trkC binding
6 | TGF-β3: transforming growth factor (protein, UniProt P10600 301-412, looked up) Transforming growth factor …: ALDTNYCFRNLEENCCVRPLYIDFRQDLGWKWVHEPKGYYANFCSGPCPYLRSADTTHSTVLGLYNTLNPEASASPCCVPQDLEPLTILYYVGRTPKVEQLSNMVVKSCKCS | No survival-promoting effects | did not show detectable protective effects | did not show detectable protective effects | –
